Experimental data reported in patent publication US20120028880A1, “VEGFR-1/NRP-1 TARGETING PEPTIDES” (priority 2007, published 2012).
Square brackets hold non-standard residues; d marks the D form. Ends that are not written are not given here.

Legend:
NRP-1 = test: competition of CPQPRPLC phage binding to immobilized NRP-1 by soluble peptide
VEGFR-1 = test: competition of CPQPRPLC phage binding to immobilized VEGFR-1 by soluble peptide
VEGFR-1, sequence (P17948 27-758): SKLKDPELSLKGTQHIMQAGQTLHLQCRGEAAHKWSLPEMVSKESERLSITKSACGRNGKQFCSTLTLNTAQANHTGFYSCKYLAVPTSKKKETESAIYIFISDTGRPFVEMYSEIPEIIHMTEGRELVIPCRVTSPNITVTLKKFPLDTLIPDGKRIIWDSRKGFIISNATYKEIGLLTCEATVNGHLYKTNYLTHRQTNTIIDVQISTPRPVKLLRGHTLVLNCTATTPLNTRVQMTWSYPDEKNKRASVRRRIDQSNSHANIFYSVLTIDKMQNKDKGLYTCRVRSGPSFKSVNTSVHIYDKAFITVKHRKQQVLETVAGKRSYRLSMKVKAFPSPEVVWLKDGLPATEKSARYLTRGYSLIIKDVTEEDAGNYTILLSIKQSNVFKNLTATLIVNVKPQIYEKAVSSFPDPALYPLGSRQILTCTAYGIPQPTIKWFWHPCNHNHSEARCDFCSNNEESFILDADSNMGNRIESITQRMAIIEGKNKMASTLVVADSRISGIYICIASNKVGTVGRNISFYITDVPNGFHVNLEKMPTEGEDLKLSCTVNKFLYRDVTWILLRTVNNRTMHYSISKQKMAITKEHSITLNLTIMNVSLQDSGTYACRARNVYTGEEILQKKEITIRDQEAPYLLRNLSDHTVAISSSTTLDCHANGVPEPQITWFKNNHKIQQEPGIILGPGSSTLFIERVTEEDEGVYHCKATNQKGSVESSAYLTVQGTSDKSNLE

NRP-1, sequence (O14786 22-856): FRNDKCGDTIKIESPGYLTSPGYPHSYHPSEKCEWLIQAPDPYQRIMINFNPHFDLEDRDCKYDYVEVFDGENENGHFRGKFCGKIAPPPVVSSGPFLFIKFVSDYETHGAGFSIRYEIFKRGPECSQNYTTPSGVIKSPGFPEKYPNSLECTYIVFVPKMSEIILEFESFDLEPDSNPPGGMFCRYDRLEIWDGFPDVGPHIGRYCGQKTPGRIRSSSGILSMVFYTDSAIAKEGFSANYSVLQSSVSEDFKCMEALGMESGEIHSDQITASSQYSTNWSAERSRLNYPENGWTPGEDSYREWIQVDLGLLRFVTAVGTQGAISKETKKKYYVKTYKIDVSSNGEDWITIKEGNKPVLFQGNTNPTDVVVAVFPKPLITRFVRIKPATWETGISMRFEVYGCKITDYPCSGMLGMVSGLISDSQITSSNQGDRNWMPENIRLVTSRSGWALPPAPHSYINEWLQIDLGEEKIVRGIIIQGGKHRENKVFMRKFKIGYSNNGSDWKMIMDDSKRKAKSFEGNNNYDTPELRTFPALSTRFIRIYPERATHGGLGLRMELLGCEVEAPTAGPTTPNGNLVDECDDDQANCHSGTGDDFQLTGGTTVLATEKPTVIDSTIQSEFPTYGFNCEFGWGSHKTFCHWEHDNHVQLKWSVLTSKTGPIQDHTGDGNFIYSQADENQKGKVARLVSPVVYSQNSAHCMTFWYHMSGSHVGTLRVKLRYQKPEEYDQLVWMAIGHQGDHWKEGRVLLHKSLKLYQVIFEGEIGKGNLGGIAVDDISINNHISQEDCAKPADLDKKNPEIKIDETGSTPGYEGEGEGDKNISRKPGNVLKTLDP

IC50 (NRP-1): 1 to 10 pM
IC50 (VEGFR-1): 1 to 10 pM
Substance: [dL]-[dP]-[dR]
